B1: AsHPPDm-F372A-02: Avena sativa HPPD mutant F372A, SEQ ID NO: 4; gene SEQ ID NO: 6 (protein)
chain: MPPTPATATGAAAAAVTPEHAARSFPRVVRVNPRSDRFPVLSFHHVELWCADAASAAGRFSFALGAPLAARSDLSTGNSAHASLLLRSGALAFLFTAPYAPPPQEAATAAATASIPSFSADAARTFAAAHGLAVRSVGVRVADAAEAFRVSVAGGARPAFAPADLGHGFGLAEVELYGDVVLRFVSYPDETDLPFLPGFERVSSPGAVDYGLTRFDHVVGNVPEMAPVIDYMKGFLGFHEFAEFTAEDVGTTESGLNSVVLANNSEAVLLPLNEPVHGTKRRSQIQTYLEYHGGPGVQHIALASNDVLRTLREMRARTPMGGFEFMAPPQAKYYEGVRRIAGDVLSEEQIKECQELGVLVDRDDQGVLLQIATKPVGDRPTFFLEMIQRIGCMEKDEVGQEYQKGGCGGFGKGNFSELFKSIEDYEKSLEVKQSVVAQKS
modifications: AsHPPDm-F372A Amido Acid Sequence
B2: ZmHPPDm-F372A-02: Zea mays HPPD mutant F372A, SEQ ID NO: 20 (protein)
chain: MPPTPTAAAAGAAVAAASAAEQAAFRLVGHRNFVRFNPRSDRFHTLAFHHVELWCADAASAAGRFSFGLGAPLAARSDLSTGNSAHASLLLRSGSLSFLFTAPYAHGADAATAALPSFSAAAARRFAADHGLAVRAVALRVADAEEAFRTSVAAGARPAFGPVDLGRGFRLAEVELYGDVVLRYVSYPDGAAGEPFLPGFEGVASPGAADYGLSRFDHIVGNVPELAPAAAYFAGFTGFHEFAEFTTEDVGTAESGLNSMVLANNSENVLLPLNEPVHGTKRRSQIQTFLDHHGGPGVQHMALASDDVLRTLREMQARSAMGGFEFMAPPTSDYYDGVRRRAGDVLTEAQIKECQELGVLVDRDDQGVLLQIAPKPVGDRPTLFLEIIQRIGCMERDEKGQEYQKGGCGGFGKGNFSQLFKSIEDYEKSLEAMQAAAAATAQGS
modifications: ZmHPPDm-F372A Amino Acid Sequence
B3: PfHPPDm-F372A-02: Pseudomonas fluorescens HPPD mutant F372A, SEQ ID NO: 30 (protein)
chain: MADLYENPMGLMGFEFIEFASPTPGTLEPIFEIMGFTKVATHRSKNVHLYRQGEINLILNNEPNSIASYFAAEHGPSVCGMAFRVKDSQKAYNRALELGAQPIHIDTGPMELNLPAIKGIGGAPLYLIDRFGEGSSIYDIDFVYLEGVERNPVGAGLKVIDHLTHNVYRGRMVYWANFYEKLFNFREARYFDIKGEYTGLTSKAMSAPDGMIRIPLNEESSKGAGQIEEFLMQFNGEGIQHVAFLTDDLVKTWDALKKIGMRFMTAPPDTYYEMLEGRLPDHGEPVDQLQARGILLDGSSVEGDKRLLLQIASETLMGPVFFEFIQRKGDDGFGEGNFKALFESIERDQVRRGVLTAD
modifications: PfHPPDm-F372A Amino Acid Sequence
B4: AsHPPDm-F372A-A110: Avena sativa HPPD with F372A and deletion of alanine at position 110, SEQ ID NO: 412 (protein)
chain: MPPTPATATGAAAAAVTPEHAARSFPRVVRVNPRSDRFPVLSFHHVELWCADAASAAGRFSFALGAPLAARSDLSTGNSAHASLLLRSGALAFLFTAPYAPPPQEAATAATASIPSFSADAARTFAAAHGLAVRSVGVRVADAAEAFRVSVAGGARPAFAPADLGHGFGLAEVELYGDVVLRFVSYPDETDLPFLPGFERVSSPGAVDYGLTRFDHVVGNVPEMAPVIDYMKGFLGFHEFAEFTAEDVGTTESGLNSVVLANNSEAVLLPLNEPVHGTKRRSQIQTYLEYHGGPGVQHIALASNDVLRTLREMRARTPMGGFEFMAPPQAKYYEGVRRIAGDVLSEEQIKECQELGVLVDRDDQGVLLQIATKPVGDRPTFFLEMIQRIGCMEKDEVGQEYQKGGCGGFGKGNFSELFKSIEDYEKSLEVKQSVVAQKS
modifications: AsHPPDm-F372A-A110 Amino Acid Sequence

Test system: soybean T1 plants
Experiment: Herbicide tolerance of transgenic soybean T1 plants to topramezone
Format: in vivo
Conditions: topramezone 50 and 100 g ai/ha, 7 DAT, compared to control vector DBN11375NN and wild-type
From the text: (§1) The Arabidopsisthaliana T1 plants into which the AsHPPDm-F372A-02 nucleotide sequence was introduced, Arabidopsis thaliana T1 plants into which the AsHPPD-02 nucleotide sequence was introduced and wild-type Arabidopsisthaliana plants (18 days after sowing) were sprayed with topramezone at four different concentrations, i.e., 25 g ai/ha (one-fold field concentration, 1×), 50 g ai/ha (two-fold field concentration, 2×), 100 g ai/ha (four-fold field concentration, 4×) and 0 g ai/ha (water, 0×) to determine the tolerance of Arabidopsisthaliana to the herbicide. The degree of damage caused by the herbicide was measured for each plant according to the proportion of bleached leaf area (the proportion of bleached leaf area=bleached leaf area/total leaf area×100%) 7 days after spraying (7 DAT): the case where there is basically no bleached phenotype is defined as grade 0, the case where the proportion of bleached leaf area is less than 50% is defined as grade 1,the case where the proportion of bleached leaf area is more than 50% is defined as grade 2, and the case where the proportion of bleached leaf area is 100% grade is defined as grade 3.
The soybean T1 plants into which the AsHPPDm-F372A-02 nucleotide sequence was introduced, soybean T1 plants into which the ZmHPPDm-F372A-02 nucleotide sequence was introduced, soybean T1 plants into which the PfHPPDm-F372A-02 nucleotide sequence was introduced, soybean T1 plants into which the AsHPPDm-F372A-A110 nucleotide sequence was introduced, soybean T1 plants into which, the PfHPPDm-F372A-G413W nucleotide sequence was introduced, soybean T1 plants into which the control vector DBN11375NN was introduced and wild-type soybean plants (V3-V4 at seedling stage) were sprayed with topramezone at two different concentrations respectively, i.e. 50 g ai/ha (2-fold field concentration, 2 ×) and 100 g ai/ha (4-fold field concentration, 4 ×) to detect the herbicide tolerance of soybean plants. According to the method in point 6 of Example 1, after 7 days of spraying (7 DAT), the damage degree of each plant by the herbicide was statistically analyzed, and the scoring and resistance evaluation were carried out accordingly. The soybean plants into which the AsHPPDm-F372A-02 nucleotide sequence was introduced were of two strains in total (S1 and S2), the soybean plants into which the ZmHPPDm-F372A-02 nucleotide sequence was introduced were of two strains in total (S3 and S4), the soybean plants into which the PfHPPDm-F372A-02 nucleotide sequence was introduced were of two strains in total (S5 and S6), the soybean plants into which the AsHPPDm-F372A-Al 10 nucleotide sequence was introduced were of two strains in total (S7 and S8), the soybean plants into which the PfHPPDm-F372A-G413W nucleotide sequence was introduced were of two strains in total (S9 and S10), the soybean plants into which the control vector DBN11375NN nucleotide sequence was introduced were of one strain in total (S11), and the wild-type soybean plants were of one strain in total (CK1); and 8 plants were selected from each strain and detected.

Molecule | tolerance to topramezone, in words
B1 | higher tolerance
B2 | higher tolerance
B3 | higher tolerance
B4 | higher tolerance

Test system: soybean T1 plants
Experiment: Tolerance of transgenic soybean T1 plants to mesotrione
Format: in vivo
Conditions: mesotrione 210 and 420 g ai/ha, 7 DAT, compared to control vector and wild-type
From the text: as §1
(§2) In order to further verify the tolerance effect of HPPD (F372A) on other HPPD inhibitors, the soybean T1 plants into which the AsHPPDm-F372A-02 nucleotide sequence was introduced, soybean T1 plants into which the ZmHPPDm-F372A-02 nucleotide sequence was introduced, soybean T1 plants into which the PfHPPDm-F372A-02 nucleotide sequence was introduced, soybean T1 plants into which the AsHPPDm-F372A-A110 nucleotide sequence was introduced, soybean T1 plants into which the control vector DBN11375NN was introduced in Example 8, and the wild-type soybean plants (V3-V4 at seedling stage) were sprayed as follows to detect the herbicide tolerance of each soybean plants, (1) 140 g ai/ha (2-fold field concentration, 2 ×) isoxaflutole; (2) 280 g ai/ha (4-fold field concentration, 4 ×) isoxaflutole; (3) 210 g ai/ha (2-fold field concentration, 2 ×) mesotrione; (4) 420 g ai/ha (4-fold field concentration, 4 ×) mesotrione. According to the method in point 6 of Example 1, after 7 days of spraying (7 DAT), the damage degree of each plant by the herbicide was statistically analyzed, and the scoring and resistance evaluation were carried out accordingly. […]

Molecule | tolerance to mesotrione, in words
B1 | different degrees of tolerance
B2 | different degrees of tolerance
B3 | different degrees of tolerance
B4 | different degrees of tolerance

Test system: soybean T1 plants
Experiment: Tolerance of transgenic soybean T1 plants to isoxaflutole
Format: in vivo
Conditions: isoxaflutole 140 and 280 g ai/ha, 7 DAT, compared to control vector and wild-type
From the text: as §1, §2

Molecule | tolerance to isoxaflutole, in words
B1 | different degrees of tolerance
B2 | different degrees of tolerance
B3 | different degrees of tolerance
B4 | different degrees of tolerance

Test system: rice T1 plants
Experiment: Herbicide tolerance of transgenic rice T1 plants to topramezone
Format: in vivo
Conditions: topramezone 50 and 100 g ai/ha, 7 DAT, compared to wild-type
From the text: as §1
The rice T1 plants into which the AsHPPDm-F372A-02 nucleotide sequence was introduced, rice T1 plants into which the AsHPPDm-F372A-A110 nucleotide sequence was introduced, rice T1 plants into which the ZmHPPDm-F372A-02 nucleotide sequence was introduced, rice T1 plants into which the PfHPPDm-F372A-02 nucleotide sequence was introduced and wild-type rice plants (V3-V4 at seedling stage) were sprayed with topramezone at two different concentrations respectively, i.e. 50 g ai/ha (2-fold field concentration, 2 ×) and 100 g ai/ha (4-fold field concentration, 4 ×) to detect the herbicide tolerance of rice plants. According to the method in point 6 of Example 1, after 7 days of spraying (7 DAT), the damage degree of each plant by the herbicide was statistically analyzed, and the scoring and resistance evaluation were carried out accordingly. The rice T1 plants into which AsHPPDm-F372A-02 nucleotide sequence was introduced were of two strains in total (S12 and S13), rice T1 plants into which AsHPPDm-F372A-A1 10 nucleotide sequence was introduced were of two strains in total (S14 and S15), rice T1 plants into which ZmHPPDm-F372A-02 nucleotide sequence was introduced were of two strains in total (S16 and S17), rice T1 plants into which PfHPPDm-F372A-02 nucleotide sequence was introduced were of two strains in total (S18 and S19), and the wild-type rice plants were of one strain in total (CK2); and 8 plants were selected from each strain and tested.

Molecule | tolerance to topramezone, in words
B1 | higher tolerance
B2 | higher tolerance
B3 | higher tolerance
B4 | higher tolerance

From patent US20230212587A1, “Mutant Hydroxyphenylpyruvate Dioxygenase Polypeptide, Encoding Gene Thereof and Use Therefor” (Beijing Dabeinong Biotechnology Co., Ltd., priority 2019, published 2023)
